# *1 amine or outer side, *2 acyl side, *3 side chain or, on linkers, in order; H or OH if unused. Side-chain parts run from the residue outwards. The star is where a group is joined. C18 diacid = O=C(O)CCCCCCCCCCCCCCCCC(=O)*; γGlu = O=C(O)[C@H](CCC(=O)[*:2])N[*:1]; Isovaleryl = CC(C)CC(=O)*; Ahx = NCCCCCC(=O)O
# T1: human NPY2 receptor (human, UniProt P49146 1-381)
# T1 construct: whole, on cells; also called hNPY2-R; hNPY2R
# T1 sequence (looked up): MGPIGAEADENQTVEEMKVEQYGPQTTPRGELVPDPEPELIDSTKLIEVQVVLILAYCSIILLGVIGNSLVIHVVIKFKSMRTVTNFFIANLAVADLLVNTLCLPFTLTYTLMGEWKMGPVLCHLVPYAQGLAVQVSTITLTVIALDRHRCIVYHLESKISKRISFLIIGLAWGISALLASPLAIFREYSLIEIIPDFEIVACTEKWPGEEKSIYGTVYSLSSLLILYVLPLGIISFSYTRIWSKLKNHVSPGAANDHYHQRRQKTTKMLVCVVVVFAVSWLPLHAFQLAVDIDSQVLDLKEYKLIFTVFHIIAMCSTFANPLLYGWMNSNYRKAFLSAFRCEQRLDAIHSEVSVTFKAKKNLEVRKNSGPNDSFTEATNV
# Molecular target: T1, human NPY2 receptor
# Assay: RLB: displacement of 125I-PYY(1-36) from hNPY2R membranes
row,Ki [nM],Binder
1,3.65,Isovaleryl-APEK([Ahx-γGlu-C18 diacid])PEEDAAPEELQKYYVSLRHYYNWLTRQRY-NH2 (SMILES CC(C)CC(=O)N[C@@H](C)C(=O)N1CCC[C@H]1C(=O)N[C@@H](CCC(=O)O)C(=O)N[C@@H](CCCCNC(=O)CCCCCNC(=O)CC[C@H](NC(=O)CCCCCCCCCCCCCCCCC(=O)O)C(=O)O)C(=O)N1CCC[C@H]1C(=O)N[C@@H](CCC(=O)O)C(=O)N[C@@H](CCC(=O)O)C(=O)N[C@@H](CC(=O)O)C(=O)N[C@@H](C)C(=O)N[C@@H](C)C(=O)N1CCC[C@H]1C(=O)N[C@@H](CCC(=O)O)C(=O)N[C@@H](CCC(=O)O)C(=O)N[C@@H](CC(C)C)C(=O)N[C@@H](CCC(N)=O)C(=O)N[C@@H](CCCCN)C(=O)N[C@@H](Cc1ccc(O)cc1)C(=O)N[C@@H](Cc1ccc(O)cc1)C(=O)N[C@H](C(=O)N[C@@H](CO)C(=O)N[C@@H](CC(C)C)C(=O)N[C@@H](CCCNC(=N)N)C(=O)N[C@@H](Cc1c[nH]cn1)C(=O)N[C@@H](Cc1ccc(O)cc1)C(=O)N[C@@H](Cc1ccc(O)cc1)C(=O)N[C@@H](CC(N)=O)C(=O)N[C@@H](Cc1c[nH]c2ccccc12)C(=O)N[C@@H](CC(C)C)C(=O)N[C@H](C(=O)N[C@@H](CCCNC(=N)N)C(=O)N[C@@H](CCC(N)=O)C(=O)N[C@@H](CCCNC(=N)N)C(=O)N[C@@H](Cc1ccc(O)cc1)C(N)=O)[C@@H](C)O)C(C)C) [Compound 123]
2,3.07,Isovaleryl-APEK([Ahx-γGlu-C18 diacid])PEAAAEPEEIQRYYVSLRHYYNWLTRQRY-NH2 (SMILES CC[C@H](C)[C@H](NC(=O)[C@H](CCC(=O)O)NC(=O)[C@H](CCC(=O)O)NC(=O)[C@@H]1CCCN1C(=O)[C@H](CCC(=O)O)NC(=O)[C@H](C)NC(=O)[C@H](C)NC(=O)[C@H](C)NC(=O)[C@H](CCC(=O)O)NC(=O)[C@@H]1CCCN1C(=O)[C@H](CCCCNC(=O)CCCCCNC(=O)CC[C@H](NC(=O)CCCCCCCCCCCCCCCCC(=O)O)C(=O)O)NC(=O)[C@H](CCC(=O)O)NC(=O)[C@@H]1CCCN1C(=O)[C@H](C)NC(=O)CC(C)C)C(=O)N[C@@H](CCC(N)=O)C(=O)N[C@@H](CCCNC(=N)N)C(=O)N[C@@H](Cc1ccc(O)cc1)C(=O)N[C@@H](Cc1ccc(O)cc1)C(=O)N[C@H](C(=O)N[C@@H](CO)C(=O)N[C@@H](CC(C)C)C(=O)N[C@@H](CCCNC(=N)N)C(=O)N[C@@H](Cc1c[nH]cn1)C(=O)N[C@@H](Cc1ccc(O)cc1)C(=O)N[C@@H](Cc1ccc(O)cc1)C(=O)N[C@@H](CC(N)=O)C(=O)N[C@@H](Cc1c[nH]c2ccccc12)C(=O)N[C@@H](CC(C)C)C(=O)N[C@H](C(=O)N[C@@H](CCCNC(=N)N)C(=O)N[C@@H](CCC(N)=O)C(=O)N[C@@H](CCCNC(=N)N)C(=O)N[C@@H](Cc1ccc(O)cc1)C(N)=O)[C@@H](C)O)C(C)C) [Compound 124]
3,9.36,Isovaleryl-APEK([Ahx-γGlu-C18 diacid])PEEDATPEELQLYYVSLRHYYNWLTRQRY-NH2 (SMILES CC(C)CC(=O)N[C@@H](C)C(=O)N1CCC[C@H]1C(=O)N[C@@H](CCC(=O)O)C(=O)N[C@@H](CCCCNC(=O)CCCCCNC(=O)CC[C@H](NC(=O)CCCCCCCCCCCCCCCCC(=O)O)C(=O)O)C(=O)N1CCC[C@H]1C(=O)N[C@@H](CCC(=O)O)C(=O)N[C@@H](CCC(=O)O)C(=O)N[C@@H](CC(=O)O)C(=O)N[C@@H](C)C(=O)N[C@H](C(=O)N1CCC[C@H]1C(=O)N[C@@H](CCC(=O)O)C(=O)N[C@@H](CCC(=O)O)C(=O)N[C@@H](CC(C)C)C(=O)N[C@@H](CCC(N)=O)C(=O)N[C@@H](CC(C)C)C(=O)N[C@@H](Cc1ccc(O)cc1)C(=O)N[C@@H](Cc1ccc(O)cc1)C(=O)N[C@H](C(=O)N[C@@H](CO)C(=O)N[C@@H](CC(C)C)C(=O)N[C@@H](CCCNC(=N)N)C(=O)N[C@@H](Cc1c[nH]cn1)C(=O)N[C@@H](Cc1ccc(O)cc1)C(=O)N[C@@H](Cc1ccc(O)cc1)C(=O)N[C@@H](CC(N)=O)C(=O)N[C@@H](Cc1c[nH]c2ccccc12)C(=O)N[C@@H](CC(C)C)C(=O)N[C@H](C(=O)N[C@@H](CCCNC(=N)N)C(=O)N[C@@H](CCC(N)=O)C(=O)N[C@@H](CCCNC(=N)N)C(=O)N[C@@H](Cc1ccc(O)cc1)C(N)=O)[C@@H](C)O)C(C)C)[C@@H](C)O) [Compound 130]
4,4.42,Isovaleryl-APEK([Ahx-γGlu-C18 diacid])PEEDAEPEELQRYYVSLRHYYNWLTRQRY-NH2 (SMILES CC(C)CC(=O)N[C@@H](C)C(=O)N1CCC[C@H]1C(=O)N[C@@H](CCC(=O)O)C(=O)N[C@@H](CCCCNC(=O)CCCCCNC(=O)CC[C@H](NC(=O)CCCCCCCCCCCCCCCCC(=O)O)C(=O)O)C(=O)N1CCC[C@H]1C(=O)N[C@@H](CCC(=O)O)C(=O)N[C@@H](CCC(=O)O)C(=O)N[C@@H](CC(=O)O)C(=O)N[C@@H](C)C(=O)N[C@@H](CCC(=O)O)C(=O)N1CCC[C@H]1C(=O)N[C@@H](CCC(=O)O)C(=O)N[C@@H](CCC(=O)O)C(=O)N[C@@H](CC(C)C)C(=O)N[C@@H](CCC(N)=O)C(=O)N[C@@H](CCCNC(=N)N)C(=O)N[C@@H](Cc1ccc(O)cc1)C(=O)N[C@@H](Cc1ccc(O)cc1)C(=O)N[C@H](C(=O)N[C@@H](CO)C(=O)N[C@@H](CC(C)C)C(=O)N[C@@H](CCCNC(=N)N)C(=O)N[C@@H](Cc1c[nH]cn1)C(=O)N[C@@H](Cc1ccc(O)cc1)C(=O)N[C@@H](Cc1ccc(O)cc1)C(=O)N[C@@H](CC(N)=O)C(=O)N[C@@H](Cc1c[nH]c2ccccc12)C(=O)N[C@@H](CC(C)C)C(=O)N[C@H](C(=O)N[C@@H](CCCNC(=N)N)C(=O)N[C@@H](CCC(N)=O)C(=O)N[C@@H](CCCNC(=N)N)C(=O)N[C@@H](Cc1ccc(O)cc1)C(N)=O)[C@@H](C)O)C(C)C) [Compound 126]
5,3.36,Isovaleryl-APEK([Ahx-γGlu-C18 diacid])PEAAAEPEELQRYYVALRHYYNWLTRQRY-NH2 (SMILES CC(C)CC(=O)N[C@@H](C)C(=O)N1CCC[C@H]1C(=O)N[C@@H](CCC(=O)O)C(=O)N[C@@H](CCCCNC(=O)CCCCCNC(=O)CC[C@H](NC(=O)CCCCCCCCCCCCCCCCC(=O)O)C(=O)O)C(=O)N1CCC[C@H]1C(=O)N[C@@H](CCC(=O)O)C(=O)N[C@@H](C)C(=O)N[C@@H](C)C(=O)N[C@@H](C)C(=O)N[C@@H](CCC(=O)O)C(=O)N1CCC[C@H]1C(=O)N[C@@H](CCC(=O)O)C(=O)N[C@@H](CCC(=O)O)C(=O)N[C@@H](CC(C)C)C(=O)N[C@@H](CCC(N)=O)C(=O)N[C@@H](CCCNC(=N)N)C(=O)N[C@@H](Cc1ccc(O)cc1)C(=O)N[C@@H](Cc1ccc(O)cc1)C(=O)N[C@H](C(=O)N[C@@H](C)C(=O)N[C@@H](CC(C)C)C(=O)N[C@@H](CCCNC(=N)N)C(=O)N[C@@H](Cc1c[nH]cn1)C(=O)N[C@@H](Cc1ccc(O)cc1)C(=O)N[C@@H](Cc1ccc(O)cc1)C(=O)N[C@@H](CC(N)=O)C(=O)N[C@@H](Cc1c[nH]c2ccccc12)C(=O)N[C@@H](CC(C)C)C(=O)N[C@H](C(=O)N[C@@H](CCCNC(=N)N)C(=O)N[C@@H](CCC(N)=O)C(=O)N[C@@H](CCCNC(=N)N)C(=O)N[C@@H](Cc1ccc(O)cc1)C(N)=O)[C@@H](C)O)C(C)C) [Compound 127]
6,3.37,Isovaleryl-APEK([Ahx-γGlu-C18 diacid])PEEDASPEELQRYYVELRHYYNWLTRQRY-NH2 (SMILES CC(C)CC(=O)N[C@@H](C)C(=O)N1CCC[C@H]1C(=O)N[C@@H](CCC(=O)O)C(=O)N[C@@H](CCCCNC(=O)CCCCCNC(=O)CC[C@H](NC(=O)CCCCCCCCCCCCCCCCC(=O)O)C(=O)O)C(=O)N1CCC[C@H]1C(=O)N[C@@H](CCC(=O)O)C(=O)N[C@@H](CCC(=O)O)C(=O)N[C@@H](CC(=O)O)C(=O)N[C@@H](C)C(=O)N[C@@H](CO)C(=O)N1CCC[C@H]1C(=O)N[C@@H](CCC(=O)O)C(=O)N[C@@H](CCC(=O)O)C(=O)N[C@@H](CC(C)C)C(=O)N[C@@H](CCC(N)=O)C(=O)N[C@@H](CCCNC(=N)N)C(=O)N[C@@H](Cc1ccc(O)cc1)C(=O)N[C@@H](Cc1ccc(O)cc1)C(=O)N[C@H](C(=O)N[C@@H](CCC(=O)O)C(=O)N[C@@H](CC(C)C)C(=O)N[C@@H](CCCNC(=N)N)C(=O)N[C@@H](Cc1c[nH]cn1)C(=O)N[C@@H](Cc1ccc(O)cc1)C(=O)N[C@@H](Cc1ccc(O)cc1)C(=O)N[C@@H](CC(N)=O)C(=O)N[C@@H](Cc1c[nH]c2ccccc12)C(=O)N[C@@H](CC(C)C)C(=O)N[C@H](C(=O)N[C@@H](CCCNC(=N)N)C(=O)N[C@@H](CCC(N)=O)C(=O)N[C@@H](CCCNC(=N)N)C(=O)N[C@@H](Cc1ccc(O)cc1)C(N)=O)[C@@H](C)O)C(C)C) [Compound 125]

# — US20260015399A1 (Boehringer Ingelheim, published 2026)
